Reference: article PMC7819272
Where no end group is shown, it is not given here. The star is where a group is joined. Biotin = O=C1N[C@H]2[C@H](CS[C@H]2CCCCC(=O)*)N1

Target: HLA-DR3 (HLA-DRβ1-Arg74 positive) on the surface of VAVY cells (human (endogenous in VAVY))
Test: flow cytometry on cells

| percent binding to DRβ-Arg74-positive cells at 10 μM peptide [%] | percent binding to DRβ-Arg74-positive cells at 20 μM peptide [%] | percent binding to DRβ-Arg74-positive cells at 50 μM peptide [%] | Binder |
| --- | --- | --- | --- |
| 5.1 | 21.7 | 51 | Biotin-GIFNTGLKMFPDLTKVYST [TSHR132–150 peptide, biotinylated] |
| 14.7 | 19.4 | 72.9 | Biotin-FNGTKLDAVYLNKNKYLTVI [TSHR197–216 peptide, biotinylated] |
